This is an account of results in patent US20220281936.

Sequence of Recombinant mouse matrix metalloproteinase-2 (MMP2) (chain, as listed by the source): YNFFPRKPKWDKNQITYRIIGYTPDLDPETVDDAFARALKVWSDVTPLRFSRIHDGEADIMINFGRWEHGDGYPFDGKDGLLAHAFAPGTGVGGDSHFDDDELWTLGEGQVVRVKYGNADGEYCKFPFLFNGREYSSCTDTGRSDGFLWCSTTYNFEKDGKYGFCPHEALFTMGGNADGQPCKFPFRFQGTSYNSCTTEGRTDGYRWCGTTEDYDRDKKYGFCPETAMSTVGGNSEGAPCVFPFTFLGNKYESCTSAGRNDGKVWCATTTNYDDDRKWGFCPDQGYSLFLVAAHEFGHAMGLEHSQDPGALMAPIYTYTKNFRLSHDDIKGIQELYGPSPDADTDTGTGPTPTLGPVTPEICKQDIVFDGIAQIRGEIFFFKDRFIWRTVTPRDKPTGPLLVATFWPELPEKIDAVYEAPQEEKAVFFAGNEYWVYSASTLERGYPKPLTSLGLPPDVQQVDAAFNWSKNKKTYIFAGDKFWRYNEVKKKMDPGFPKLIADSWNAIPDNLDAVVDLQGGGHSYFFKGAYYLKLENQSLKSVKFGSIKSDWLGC
Sequence of Mouse IL12 (unmodified) (chain, as listed by the source, chain 1 of 2): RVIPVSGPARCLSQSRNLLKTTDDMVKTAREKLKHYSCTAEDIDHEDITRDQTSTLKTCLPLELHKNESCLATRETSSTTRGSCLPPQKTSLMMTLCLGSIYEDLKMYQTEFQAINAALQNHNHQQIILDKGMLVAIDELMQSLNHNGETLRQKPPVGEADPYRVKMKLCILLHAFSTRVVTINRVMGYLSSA
Sequence of Mouse IL12 (unmodified) (chain, as listed by the source, chain 2 of 2): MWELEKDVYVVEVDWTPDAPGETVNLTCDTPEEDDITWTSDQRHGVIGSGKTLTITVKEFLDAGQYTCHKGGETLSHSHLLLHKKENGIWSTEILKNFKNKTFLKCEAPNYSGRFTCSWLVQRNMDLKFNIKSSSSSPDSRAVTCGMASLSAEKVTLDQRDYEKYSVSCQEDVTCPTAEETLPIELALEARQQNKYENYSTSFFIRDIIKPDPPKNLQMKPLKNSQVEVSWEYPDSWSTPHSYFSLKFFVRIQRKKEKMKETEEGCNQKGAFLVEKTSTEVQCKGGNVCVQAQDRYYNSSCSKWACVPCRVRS
Sequence of IL12Rβ1-LS-IL12 (chain, as listed by the source, chain 1 of 2): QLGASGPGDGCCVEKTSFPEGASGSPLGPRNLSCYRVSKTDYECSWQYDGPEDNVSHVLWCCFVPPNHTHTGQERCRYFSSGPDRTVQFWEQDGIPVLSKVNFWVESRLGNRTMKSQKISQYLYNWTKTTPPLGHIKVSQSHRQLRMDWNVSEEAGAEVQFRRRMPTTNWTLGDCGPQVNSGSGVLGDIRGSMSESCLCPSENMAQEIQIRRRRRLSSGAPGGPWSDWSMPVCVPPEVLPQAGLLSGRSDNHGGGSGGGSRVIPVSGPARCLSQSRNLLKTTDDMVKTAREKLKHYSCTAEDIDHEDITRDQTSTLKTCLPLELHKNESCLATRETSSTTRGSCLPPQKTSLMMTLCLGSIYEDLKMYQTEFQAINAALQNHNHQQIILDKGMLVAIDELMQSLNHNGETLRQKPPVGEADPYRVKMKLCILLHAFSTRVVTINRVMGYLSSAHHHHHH
Sequence of IL12Rβ1-LS-IL12 (chain, as listed by the source, chain 2 of 2): as the sequence (chain, as listed by the source, chain 2 of 2) above

Turning to “Recombinant human urokinase plasminogen activator (uPA)”, the “proteolytic cleavage, SDS-PAGE” value with IL12Rβ1-LS-IL12 is recorded as “IL12Rβ1-LS-IL12 containing LSGRSDNH (SEQ ID NO:49) substrate was cleaved by uPA”; in the data set on Mouse IL12 (unmodified), “These enzymes had no effect on IL12 itself”.

As for “Recombinant mouse matrix metalloproteinase-2 (MMP2)”, the “proteolytic cleavage, SDS-PAGE (30 min, 37 C)” value with IL12Rβ1-VP-IL12 was “MMP2 and MMP9 fully cleaved the IL12Rβ1 portion, yielding IL12 heterodimer (-60 kDa)”. Moreover, the “proteolytic cleavage, SDS-PAGE” value in the data set with Mouse IL12 (unmodified) is recorded as “These enzymes had no effect on IL12 itself”.
